First the molecules themselves.
T1: OVA (UniProt P01012 2-386)
T1 sequence: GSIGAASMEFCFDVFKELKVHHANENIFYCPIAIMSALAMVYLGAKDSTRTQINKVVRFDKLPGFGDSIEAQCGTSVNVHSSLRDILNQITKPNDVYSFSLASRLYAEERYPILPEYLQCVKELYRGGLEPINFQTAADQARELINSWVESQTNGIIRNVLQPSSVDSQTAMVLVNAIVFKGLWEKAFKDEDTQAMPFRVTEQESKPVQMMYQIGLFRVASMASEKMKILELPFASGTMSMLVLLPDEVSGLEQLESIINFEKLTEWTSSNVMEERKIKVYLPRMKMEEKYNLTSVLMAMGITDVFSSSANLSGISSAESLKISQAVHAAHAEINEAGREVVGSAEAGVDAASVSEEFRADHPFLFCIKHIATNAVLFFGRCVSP

B1: N547 (antibody, V domains shown)
VH: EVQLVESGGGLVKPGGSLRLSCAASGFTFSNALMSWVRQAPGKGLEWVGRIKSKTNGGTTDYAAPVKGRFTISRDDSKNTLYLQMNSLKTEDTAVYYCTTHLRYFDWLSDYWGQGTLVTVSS
VL: QSVLTQPPSMSAAPGQKVTISCSGSSSNIGNNYISWYQQLPGTAPKVLIYDNNKRPSGIPDRFSGSKSGTSATLGITGLQTGDEADYYCGSWDSSLSAGVFGTGTKVTVLG
B2: human anti-M2 antibody C40 (antibody, V domains shown)
VH: QLQLQESGPGLVKPSETLSLTCTVSGGSISSSFYYCGWIRQPPGKGLEWIGSIYYRGSTYYNPSLKSRVTISVDTSKNQFSLKLSSVTAADTAVYYCARRVTMVRGVKGDYFDYWGQGTLVTVSS
VL: DIQMTQSPSSLSASVGDRVTITCRASQGISSWLAWYQQKPEKVPKSLIYAASSLQSGVPSRFSGSGSGTDFTLTISSLQPEDFATYYCQQYNYYPLTFGGGTKVEIKR
B3: C40G1 (antibody, V domains shown)
VH: B2 VH
VL: B2 VL
B4: L66 (antibody, V domains shown)
VH: EVQLVESGGGVVRPGGSLRLSCAASGFTFDDYGMSWVRQAPGKGLEWVSGINWNGGSTGYADSVKGRFTISRDNAKNSLYLQMNSLRAEDTALYYCARDRVTMVRGVIMDYYGMDVWGQGTTVTVSS
VL: QTVVTQEPSLTVSPRGTVTLTCSSSTGAVTSGYYPGWFQLKPGQAPMSLIYSARKKHSWTPARFSGSLLGGKAALTLSGVQPEDEAEYYCLLYYGGAYVFGTGTKVTVLG

The target of the first assay is T1, OVA. As to the kind of experiment: ELISA.
Turning to B1, the binding result is reported as “no binding (tested: OD450 below 0.1)”.
Same read-out and setting: next, B2: “no binding (tested: OD450 below 0.1)”; B3: “no binding (tested: OD450 below 0.1)”; B4: “no binding (tested: OD450 below 0.1)”.

Another assay deals with T2, BSA (UniProt P02769 25-607).
T2 construct: carrier for immunization
T2 sequence (P02769 25-607 limits assumed): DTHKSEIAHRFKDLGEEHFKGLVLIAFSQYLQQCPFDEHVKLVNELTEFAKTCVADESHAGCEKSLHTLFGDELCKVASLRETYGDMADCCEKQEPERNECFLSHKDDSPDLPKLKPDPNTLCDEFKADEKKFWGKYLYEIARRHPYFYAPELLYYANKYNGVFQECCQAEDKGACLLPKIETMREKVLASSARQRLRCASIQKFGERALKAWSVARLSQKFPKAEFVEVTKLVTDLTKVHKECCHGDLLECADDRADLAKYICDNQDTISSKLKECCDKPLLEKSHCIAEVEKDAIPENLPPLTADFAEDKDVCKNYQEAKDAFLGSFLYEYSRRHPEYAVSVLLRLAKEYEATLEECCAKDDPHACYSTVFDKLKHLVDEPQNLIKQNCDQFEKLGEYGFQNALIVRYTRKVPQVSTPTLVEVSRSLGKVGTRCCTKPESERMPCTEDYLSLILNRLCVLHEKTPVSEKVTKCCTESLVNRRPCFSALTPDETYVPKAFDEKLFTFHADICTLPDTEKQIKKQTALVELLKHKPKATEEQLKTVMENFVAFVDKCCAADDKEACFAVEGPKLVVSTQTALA
As to the kind of experiment: ELISA.
Take B1: the binding result was “no binding (tested: OD450 below 0.1)”.
As to B2, the binding result was “no binding (tested: OD450 below 0.1)”.
The same measure, in the same setting: next, B3: “no binding (tested: OD450 below 0.1)”.
Regarding B4, the binding result is reported as “no binding (tested: OD450 below 0.1)”.

The values are drawn from patent publication US20050170334A1 (published 2005).
